Assay results: patent publication US7718768B2, “Biologically active peptide [sequence]” (CMS Peptides Patent Holding Company Limited, priority 2001, dated 2010)

Columns and labels:
Assay type in all cases: in vivo, BALB/c mice
NK cell = NK cell cytotoxicity activity test (YAC-1 target cells, MTT) on spleen cells of treated mice; conditions: IFN-γ and IL-2 groups 3×10^5 IU/kg/day, X ± SD
How it was run: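 Mice (ten per group) dosed i.p. once daily for 15 days in 0.5 ml saline; spleens taken the next day, erythrocytes lysed with Tris-NH4Cl. Spleen cells (4×10^6/ml) mixed with YAC-1 targets (1×10^5/ml) in triplicate per mouse. Viability by MTT, 4 h at 37° C., OD570nm referenced at 630 nm.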

anti-SRBC antibody = experiment: Sheep Red Blood Cell (SRBC) hemolysis test, anti-SRBC antibody formation; conditions: SRBC on day 12, IFN-γ and IL-2 groups 3×10^5 IU/kg/day, X ± SD
How it was run: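 Hemolytic antibody read-out: day-16 mouse serum (1:500) incubated 10 min at 37 °C with 2% SRBC and Cavy-serum complement, supernatant treated with Drabkin solution, OD540nm measured. Animals were SRBC-immunized i.p. (0.2 ml) on day 12 during dosing.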

[1] = immunity organ weight test (thymus gland index, spleen index); conditions: IFN-γ and IL-2 groups 3×10^5 IU/kg/day, X ± SD
How it was run: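 Organs (thymus, spleen, liver) were weighed one day after the last of 15 daily i.p. doses given in saline. Indices are expressed as percentage of body weight, with α derived from body weight relative to combined liver and spleen weight.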

T lymphocyte = T lymphocyte transformation in mice with ascitic fluid type liver cancer H22; conditions: 3 × 10^5 IU/kg i.p. once per day
Method: Healthy BALB/c mice were randomized into peptide group, rmIFN-γ group, rhIL-2 group, and saline group, 15 mice per group, and prepared into H22 carrying mice model as described in section Method 3. After implantation of the cancer cells, the test substances were administered for 15 days, the mice were killed by cervical dislocation. The spleen was isolated aseptically and manually dispersed in cold D-Hank's solution using an injection needle. The dispersed cell suspension was further sieved through a 100-gauge 150 μm diameter stainless steel sieve. After centrifugation at 200 g for 10 minutes, the supernatant was discarded. The cell pellet was re-suspended in 10 volume of Tris-NH4Cl buffer and then kept standing still for 10 minutes at room temperature. The suspended cells were collected by centrifugation at 150 g for 10 minutes. The cells were washed 2-4 times with cold D-Hank's solution by re-suspending and collecting by centrifugation with condition as described above. The washed cells were then diluted to the desired cell densities by RPMI-1640 culture medium, containing 10% fetal bovine serum.
Spleen cells of density 1×10^6/ml were placed onto a 96 wells cell culture plate, 100 μl/well, three parallel wells each of the assay sample and control sample per mouse. To the assay wells, 100 μl/well ConA of 100 μg/ml in RPMI-1640 was added, and 100 μl/well plain RPMI-1640 was used for the controls. The cells were incubated for 66 hrs at 37° C., 5% CO2. The cells were then pelleted by centrifugation at 150 g for 10 minutes.
50 μl/well MTT of 1 mg/ml in RPMI-1640 was added to the cell pellet and the cells re-suspended by shaking for 2 minutes. The incubation was continued for 4 hours. The supernatant was discarded after centrifugation at 150 g for 10 minutes. 120 μl 40 mM HCl-2-propanol was added to the cell pellet and shaken for 3 minutes. Use an ELISA reader to obtain OD570nm of each well referenced at 630 nm.
Each mouse formed three assay wells and three control wells. The Stimulation Index (SI) of each mouse was obtained by first deriving the average OD of the three parallel wells, then dividing the value of the assay wells by the control wells.

[2] = peptide 0.5 μg/kg/day i.p. 15 days
[3] = peptide 5 μg/kg/day i.p. 15 days
[4] = peptide 50 μg/kg/day i.p. 15 days
[5] = peptide 500 μg/kg/day i.p. 15 days

B1: IFN-γ: recombinant mouse interferon-γ, Beijing Biotech Inc.; positive control immunostimulant (protein, UniProt P01580 23-155, looked up)
Interferon gamma: HGTVIESLESLNNYFNSSGIDVEEKSLFLDIWRNWQKDGDMKILQSQIISFYLRLFEVLKDNQAISNNISVIESHLITTFFSNSKAKKDAFMSIAKFEVNNPQVQRQAFNELIRVVHQLLPESSLRKRKRSRC
NK cell cytotoxic activity (NK cell activity index) (NK cell; [2]): 72 ± 9 %
NK cell cytotoxic activity (NK cell activity index) (NK cell; [3]): 80 ± 8 %
NK cell cytotoxic activity (NK cell activity index) (NK cell; [4]): 73 ± 10 %
NK cell cytotoxic activity (NK cell activity index) (NK cell; [5]): 77 ± 8 %
anti-SRBC antibody formation (sample serum index) (anti-SRBC antibody; [2]): 37 ± 10 Unit
anti-SRBC antibody formation (sample serum index) (anti-SRBC antibody; [3]): 37 ± 10 Unit
anti-SRBC antibody formation (sample serum index) (anti-SRBC antibody; [4]): 37 ± 10 Unit
anti-SRBC antibody formation (sample serum index) (anti-SRBC antibody; [5]): 37 ± 10 Unit
weight of spleen (spleen index) [1, 2]: 0.50 ± 0.04%
weight of thymus gland (thymus gland index) [1, 2]: 0.15 ± 0.04%
weight of thymus gland (thymus gland index) [1, 3]: 0.15 ± 0.04%
weight of spleen (spleen index) [1, 4]: 0.50 ± 0.04%
weight of thymus gland (thymus gland index) [1, 4]: 0.15 ± 0.04%
weight of thymus gland (thymus gland index) [1, 5]: 0.15 ± 0.04%
Stimulation index (T lymphocyte): 1.27 ± 0.14
